Reference: publication PMC11119335

Experiments:
AtCBF1 [1] = target: T1, AtCBF1 (Arabidopsis thaliana, UniProt P93835 1-213); test: competition
OsDREB1C-m2 (R12K) = OsDREB1C-m2 (R12K) (Oryza sativa, UniProt Q9LWV3 1-214, R45K); test: competition
OsDREB1C (WT) [2] = target: T2, OsDREB1C (WT) (Oryza sativa, UniProt Q9LWV3 1-214); test: competition
AtCBF1 [3] = target: T1, AtCBF1; test: EMSA
OsDREB1C-m1 (A10_) = OsDREB1C-m1 (A10_) (Oryza sativa, UniProt Q9LWV3 1-214, del43-43); test: EMSA
OsDREB1C (WT) [4] = target: T2, OsDREB1C (WT); test: EMSA

T1 sequence (P93835 whole entry): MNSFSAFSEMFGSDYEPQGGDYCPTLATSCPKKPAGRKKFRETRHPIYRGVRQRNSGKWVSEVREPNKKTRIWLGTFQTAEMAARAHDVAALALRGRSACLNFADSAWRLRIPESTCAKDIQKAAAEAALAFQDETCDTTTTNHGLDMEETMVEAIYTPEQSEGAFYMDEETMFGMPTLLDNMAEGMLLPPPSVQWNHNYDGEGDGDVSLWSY

Binder | binding result (AtCBF1 [1]) | binding result (OsDREB1C-m2 (R12K)) | further results
OsNR2 GCCGAC competitor, 29 bp (dsDNA) DNA 1: CAGGAGCTCGATGTAGCCGACCTCGTCGA DNA 2: TCGACGAGGTCGGCTACATCGAGCTCCTG | binds | binds | binding result (OsDREB1C (WT) [2]): binds
ACCGAC competitor, 29 bp (dsDNA) DNA 1: CAGGAGCTCGATGTAACCGACCTCGTCGA DNA 2: TCGACGAGGTCGGTTACATCGAGCTCCTG | binds | binds | –
ACCGAC probe, 29 bp (dsDNA) DNA 1: CAGGAGCTCGATGTAACCGACCTCGTCGA DNA 2: TCGACGAGGTCGGTTACATCGAGCTCCTG | – | – | binding result (AtCBF1 [3]): binds
OsNR2 GCCGAC probe, 29 bp (dsDNA) DNA 1: CAGGAGCTCGATGTAGCCGACCTCGTCGA DNA 2: TCGACGAGGTCGGCTACATCGAGCTCCTG | – | – | binding result (OsDREB1C-m1 (A10_)): binds; binding result (OsDREB1C (WT) [4]): binds
